Assay results taken from the supplement of paper PMC9112550, “Optimization of the antimicrobial peptide Bac7 by deep mutational scanning” (BMC Biology, 2022).

System: Escherichia coli TOP10
Assay: shrunken log2 fold change of peptide-encoding DNA abundance (4.5 h post-induction vs induction); higher = less antimicrobial activity (less host growth inhibition)
Conditions: time post-induction: 4.5 h; library: site-saturation at positions 5, 18, 19, 20
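Also: peptides expressed intracellularly from a pBAD plasmid library in pooled LB shake-flask culture, induced with 0.3% L-arabinose, DNA abundance read by NGS, three biological replicates, DESeq2 with apeglm shrinkage.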

| Sequence | shrunken log2 fold change |
| --- | --- |
| RRIRVRPPRLPRPRPRPELMPRP | -0.0669 |
| RRIRVRPPRLPRPRPRPELRPRP | 0.123 |
| RRIRVRPPRLPRPRPRPEMFPRP | -0.0822 |
| RRIRVRPPRLPRPRPRPEMKPRP | -0.184 |
| RRIRVRPPRLPRPRPRPENAPRP | 0.173 |
| RRIRVRPPRLPRPRPRPENPPRP | 0.0444 |
| RRIRVRPPRLPRPRPRPENYPRP | -0.0159 |
| RRIRVRPPRLPRPRPRPEPRPRP | 0.708 |
| RRIRVRPPRLPRPRPRPEPVPRP | 0.365 |
| RRIRVRPPRLPRPRPRPEPYPRP | -0.2 |
| RRIRVRPPRLPRPRPRPEQHPRP | 0.262 |
| RRIRVRPPRLPRPRPRPEQLPRP | 0.185 |
| RRIRVRPPRLPRPRPRPEQMPRP | 0.212 |
| RRIRVRPPRLPRPRPRPEQWPRP | 0.149 |
| RRIRVRPPRLPRPRPRPERQPRP | 0.514 |
| RRIRVRPPRLPRPRPRPESVPRP | -0.204 |
| RRIRVRPPRLPRPRPRPEVIPRP | -0.595 |
| RRIRVRPPRLPRPRPRPEVPPRP | 0.326 |
| RRIRVRPPRLPRPRPRPEVTPRP | -0.0717 |
| RRIRVRPPRLPRPRPRPEWPPRP | 0.225 |
| RRIRVRPPRLPRPRPRPEWVPRP | 0.23 |
| RRIRVRPPRLPRPRPRPFACPRP | -0.395 |
| RRIRVRPPRLPRPRPRPFCGPRP | -0.0559 |
| RRIRVRPPRLPRPRPRPFCKPRP | -0.144 |
| RRIRVRPPRLPRPRPRPFCSPRP | 0.0261 |

| Sequence | shrunken log2 fold change |
| --- | --- |
| RRIRVRPPRLPRPRPRPFEKPRP | -0.00236 |
| RRIRVRPPRLPRPRPRPFEQPRP | 0.162 |
| RRIRVRPPRLPRPRPRPFFGPRP | -0.0414 |
| RRIRVRPPRLPRPRPRPFFNPRP | -0.32 |
| RRIRVRPPRLPRPRPRPFFTPRP | 0.00087 |
| RRIRVRPPRLPRPRPRPFGKPRP | -0.151 |
| RRIRVRPPRLPRPRPRPFIIPRP | -0.442 |
| RRIRVRPPRLPRPRPRPFKDPRP | -0.166 |
| RRIRVRPPRLPRPRPRPFKEPRP | 0.121 |
| RRIRVRPPRLPRPRPRPFKNPRP | -0.055 |
| RRIRVRPPRLPRPRPRPFKSPRP | 0.0446 |
| RRIRVRPPRLPRPRPRPFLDPRP | -0.187 |
| RRIRVRPPRLPRPRPRPFLQPRP | 0.15 |
| RRIRVRPPRLPRPRPRPFMKPRP | -0.737 |
| RRIRVRPPRLPRPRPRPFNKPRP | 0.791 |
| RRIRVRPPRLPRPRPRPFNLPRP | -0.103 |
| RRIRVRPPRLPRPRPRPFNTPRP | 2.64 |
| RRIRVRPPRLPRPRPRPFSQPRP | -0.0697 |
| RRIRVRPPRLPRPRPRPFTLPRP | -0.104 |
| RRIRVRPPRLPRPRPRPFTQPRP | 0.0152 |
| RRIRVRPPRLPRPRPRPFVGPRP | -0.0757 |
| RRIRVRPPRLPRPRPRPFVYPRP | -0.439 |
| RRIRVRPPRLPRPRPRPFYNPRP | -0.565 |
| RRIRVRPPRLPRPRPRPFYPPRP | -0.441 |
| RRIRVRPPRLPRPRPRPFYSPRP | -0.3 |

| Sequence | shrunken log2 fold change |
| --- | --- |
| RRIRVRPPRLPRPRPRPGCDPRP | 0.952 |
| RRIRVRPPRLPRPRPRPGDMPRP | -0.136 |
| RRIRVRPPRLPRPRPRPGDSPRP | -0.0395 |
| RRIRVRPPRLPRPRPRPGELPRP | -0.0483 |
| RRIRVRPPRLPRPRPRPGFTPRP | -0.143 |
| RRIRVRPPRLPRPRPRPGGMPRP | 0.0665 |
| RRIRVRPPRLPRPRPRPGGPPRP | 0.0704 |
| RRIRVRPPRLPRPRPRPGGTPRP | 0.0237 |
| RRIRVRPPRLPRPRPRPGGWPRP | 0.72 |
| RRIRVRPPRLPRPRPRPGHCPRP | 0.258 |
| RRIRVRPPRLPRPRPRPGHDPRP | -0.116 |
| RRIRVRPPRLPRPRPRPGKDPRP | 0.114 |
| RRIRVRPPRLPRPRPRPGKQPRP | 0.0812 |
| RRIRVRPPRLPRPRPRPGMSPRP | 0.303 |
| RRIRVRPPRLPRPRPRPGNDPRP | -0.0387 |
| RRIRVRPPRLPRPRPRPGNTPRP | -0.113 |
| RRIRVRPPRLPRPRPRPGNYPRP | -0.162 |
| RRIRVRPPRLPRPRPRPGPPPRP | 0.564 |
| RRIRVRPPRLPRPRPRPGPVPRP | 0.287 |
| RRIRVRPPRLPRPRPRPGQWPRP | 0.0407 |
| RRIRVRPPRLPRPRPRPGSIPRP | 0.00983 |
| RRIRVRPPRLPRPRPRPGSQPRP | -0.11 |
| RRIRVRPPRLPRPRPRPGTYPRP | -0.166 |
| RRIRVRPPRLPRPRPRPGWTPRP | 0.202 |
| RRIRVRPPRLPRPRPRPHCNPRP | -0.408 |
